The results in this text go back to PMC4207998 (The Journal of Biological Chemistry, 2014).

In this assay the target is T1, monomeric α-toxin (AT) of Staphylococcus aureus, as crystallised (Staphylococcus aureus subsp. aureus …).
T1 chain: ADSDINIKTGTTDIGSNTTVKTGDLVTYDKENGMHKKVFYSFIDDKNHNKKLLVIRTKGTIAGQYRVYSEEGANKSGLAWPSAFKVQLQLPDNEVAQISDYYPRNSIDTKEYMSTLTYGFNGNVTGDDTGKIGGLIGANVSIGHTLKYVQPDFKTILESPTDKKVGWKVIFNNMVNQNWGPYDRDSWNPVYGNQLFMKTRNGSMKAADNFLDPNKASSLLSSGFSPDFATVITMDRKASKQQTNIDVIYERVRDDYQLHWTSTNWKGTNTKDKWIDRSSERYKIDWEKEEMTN
Put plainly: crystal structure. The following applies: both partners purified.

B1: MEDI4893 Fab (Fab, V domains shown)
VH: EVQLVESGGGLVQPGGSLRLSCAASGFTFSSHDMHWVRQATGKGLEWVSGIGTAGDTYYPDSVKGRFTISRENAKNSLYLQMNSLRAGDTAVYYCARDRYSPTGHYYGMDVWGQGTTVTVSS
VL: DIQMTQSPSTLSASVGDRVTITCRASQSISSWLAWYQQKPGKAPKLLIYKASSLESGVPSRFSGSGSGTEFTLTISSLQPDDFATYYCKQYADYWTFGQGTKVEIK
In the case of B1, the binding result is reported as “binds”.
